Among the data in patent US20030194403A1 are IC50 values, retold here.

By IC50 is commonly meant the concentration needed to halve the response being measured. High values mean a need for much substance, low ones inhibition by little substance.

In the assay the target is soluble epidermal growth factor receptor (EGFR), purified from A431 cells (Sigma E 3641) (human) (UniProt P00533). In words: ELISA, inhibition of EGF-biotin binding to immobilized EGFR (FIG. 8).

The substance “m225, a mouse IgG2a anti-EGFR antibody (hybridoma ATCC HB-8508)” returned an IC50 of 30 nM.
